Results: the Human Domainome abundance scans (Beltran et al. 2025)
± gives the uncertainty stated by the source.

B1: Connector enhancer of kinase suppressor of ras 2, residues 9 to 71; numbered along this chain, Q8WXI2 (parent)
chain: SKWSPSQVVDWMKGLDDCLQQYIKNFEREKISGDQLLRITHQELEDLGVSRIGHQELILEAVD
B2: SWI/SNF-related matrix-associated actin-dependent regulator of chromatin subfamily B member 1, residues 181 to 248; numbered along this chain, Q12824 (parent)
chain: SQPEVLVPIRLDMEIDGQKLRDAFTWNMNEKLMTPEMFSEILCDDLDLNPLTFVPAIASAIRQQIESY

Variants of: B1
Assay: abundance fitness (aPCA) (normalised: wild type 0, dead -1); higher = more abundant; growth selection in yeast, the domain comes from the species named
Conditions: Homo sapiens
L57P showed an abundance fitness of -0.831 ± 0.057.
Variant L57H has an abundance fitness of -0.482 ± 0.057.
With L57T the abundance fitness was -0.448 ± 0.032.
V8H gave an abundance fitness of -0.878 ± 0.052.
Work on V8C yielded an abundance fitness of -0.716 ± 0.057.
Variant V8K has an abundance fitness of -0.88 ± 0.064.
Work on I23G yielded an abundance fitness of -0.344 ± 0.024.
For I23R, the abundance fitness was -0.18 ± 0.021.
Work on I23E yielded an abundance fitness of -0.412 ± 0.036.
I23W gave an abundance fitness of -0.313 ± 0.033.
In the case of E60V, the abundance fitness is reported as -0.439 ± 0.029.
E60C showed an abundance fitness of -0.187 ± 0.037.
With E60S the abundance fitness was -0.004 ± 0.026.
For W11L, the abundance fitness was -0.896 ± 0.041.
W11K gave an abundance fitness of -0.564 ± 0.046.
L47G gave an abundance fitness of -0.857 ± 0.038.
L47Q gave an abundance fitness of -0.838 ± 0.073.
For L47E, the abundance fitness was -0.795 ± 0.038.
Work on L47Y yielded an abundance fitness of -0.72 ± 0.067.
Work on L47V yielded an abundance fitness of -0.423 ± 0.025.
In the case of L47D, the abundance fitness is reported as -0.857 ± 0.061.
Work on I39F yielded an abundance fitness of -0.254 ± 0.045.
For I39G, the abundance fitness was -0.699 ± 0.034.
Variant I39V has an abundance fitness of -0.22 ± 0.03.
Work on I39A yielded an abundance fitness of -0.424 ± 0.04.
In the case of I39E, the abundance fitness is reported as -0.607 ± 0.048.
I39K gave an abundance fitness of -0.576 ± 0.047.
With E45F the abundance fitness was -0.033 ± 0.043.
With L19G the abundance fitness was -0.68 ± 0.027.
Variant L19W has an abundance fitness of -0.936 ± 0.06.
L19N showed an abundance fitness of -0.593 ± 0.054.
With L19E the abundance fitness was -0.74 ± 0.049.
Variant Y22H has an abundance fitness of -0.542 ± 0.057.
With Y22W the abundance fitness was -0.632 ± 0.06.
Y22P showed an abundance fitness of -0.753 ± 0.08.
Work on Y22I yielded an abundance fitness of -0.834 ± 0.085.
In the case of S6V, the abundance fitness is reported as -0.076 ± 0.025.
S6R showed an abundance fitness of -0.043 ± 0.024.
In the case of S6D, the abundance fitness is reported as 0.026 ± 0.044.
With S6N the abundance fitness was 0.016 ± 0.04.
K13V showed an abundance fitness of -0.391 ± 0.026.
In the case of K13L, the abundance fitness is reported as -0.23 ± 0.024.
K13I showed an abundance fitness of -0.422 ± 0.052.
In the case of K13A, the abundance fitness is reported as -0.196 ± 0.03.

Variants of: B2
Assay: as above
Conditions: Homo sapiens
Variant D47W has an abundance fitness of -0.507 ± 0.12.
With D47M the abundance fitness was -0.265 ± 0.05.
In the case of D47V, the abundance fitness is reported as -0.542 ± 0.073.
In the case of I41K, the abundance fitness is reported as 0.314 ± 0.05.
With T25H the abundance fitness was -0.065 ± 0.13.
In the case of T25D, the abundance fitness is reported as 0.021 ± 0.044.
Variant T25P has an abundance fitness of -0.314 ± 0.084.
T25L gave an abundance fitness of -0.134 ± 0.046.
I9H gave an abundance fitness of -0.89 ± 0.25.
Work on I9Q yielded an abundance fitness of -0.868 ± 0.21.
Work on E66C yielded an abundance fitness of -0.385 ± 0.098.
Work on E66H yielded an abundance fitness of -0.45 ± 0.3.
Variant Y68V has an abundance fitness of -0.373 ± 0.11.
With Y68H the abundance fitness was -0.093 ± 0.092.
Work on I57V yielded an abundance fitness of -0.177 ± 0.056.
With I57Y the abundance fitness was -0.713 ± 0.19.
I57L showed an abundance fitness of -0.76 ± 0.068.
R21F gave an abundance fitness of -0.17 ± 0.11.
R21T gave an abundance fitness of 0.009 ± 0.075.
Work on R21A yielded an abundance fitness of -0.076 ± 0.056.
L6Q gave an abundance fitness of -0.217 ± 0.29.
Work on L6F yielded an abundance fitness of -0.236 ± 0.12.
Work on E14G yielded an abundance fitness of -0.819 ± 0.16.
In the case of V7G, the abundance fitness is reported as -0.873 ± 0.1.
For L32G, the abundance fitness was 0.061 ± 0.03.
With L32M the abundance fitness was 0.085 ± 0.046.
Work on L32P yielded an abundance fitness of -0.821 ± 0.21.
In the case of L32N, the abundance fitness is reported as 0.207 ± 0.1.
In the case of D16N, the abundance fitness is reported as -0.312 ± 0.11.
Work on S1C yielded an abundance fitness of -0.095 ± 0.067.
In the case of S1G, the abundance fitness is reported as -0.061 ± 0.059.
For S1D, the abundance fitness was -0.123 ± 0.27.
Variant S1E has an abundance fitness of 0.194 ± 0.081.
S1P gave an abundance fitness of -0.109 ± 0.083.
S1W showed an abundance fitness of -0.435 ± 0.074.
Variant T34Q has an abundance fitness of -0.881 ± 0.39.
In the case of L42V, the abundance fitness is reported as -0.111 ± 0.061.
L42I showed an abundance fitness of -0.005 ± 0.082.
Q2P gave an abundance fitness of -0.079 ± 0.41.
Work on I65W yielded an abundance fitness of -0.817 ± 0.16.
Work on I61L yielded an abundance fitness of -0.725 ± 0.26.
In the case of I61M, the abundance fitness is reported as -0.461 ± 0.089.
Work on A23F yielded an abundance fitness of -0.039 ± 0.093.
E40F gave an abundance fitness of -0.463 ± 0.17.
For E40K, the abundance fitness was -0.015 ± 0.055.
E40A gave an abundance fitness of 0.038 ± 0.033.
In the case of M33F, the abundance fitness is reported as -0.542 ± 0.26.
In the case of M33H, the abundance fitness is reported as -0.293 ± 0.12.
For M33G, the abundance fitness was -0.797 ± 0.1.
With M13R the abundance fitness was -0.703 ± 0.23.
Variant L46Q has an abundance fitness of -0.162 ± 0.064.
Work on L46T yielded an abundance fitness of -0.954 ± 0.24.
L46W showed an abundance fitness of 0.017 ± 0.069.
Variant K31H has an abundance fitness of -0.169 ± 0.078.
In the case of K31F, the abundance fitness is reported as -0.397 ± 0.42.
K31T gave an abundance fitness of 0.084 ± 0.096.
For K31D, the abundance fitness was 0.018 ± 0.17.
Work on K31W yielded an abundance fitness of -0.533 ± 0.1.
Work on K31Q yielded an abundance fitness of -0.085 ± 0.07.
In the case of P8Y, the abundance fitness is reported as -0.55 ± 0.12.
P8V gave an abundance fitness of -0.315 ± 0.074.
Variant P8M has an abundance fitness of -0.355 ± 0.068.
Variant D45R has an abundance fitness of 0.193 ± 0.15.
With N29R the abundance fitness was -0.273 ± 0.23.
With F24I the abundance fitness was -0.156 ± 0.15.
F24D showed an abundance fitness of -0.451 ± 0.098.
D44T showed an abundance fitness of -0.467 ± 0.28.
D44I gave an abundance fitness of -0.259 ± 0.17.
D44K showed an abundance fitness of 0.177 ± 0.17.
N27D gave an abundance fitness of 0.165 ± 0.23.
N27A showed an abundance fitness of -0.754 ± 0.17.
Work on C43Q yielded an abundance fitness of -0.72 ± 0.11.
C43S showed an abundance fitness of -0.79 ± 0.082.
V5F showed an abundance fitness of -0.079 ± 0.17.
In the case of V5T, the abundance fitness is reported as 0.213 ± 0.13.
V5S showed an abundance fitness of -0.174 ± 0.11.
A58S showed an abundance fitness of -0.072 ± 0.17.
In the case of M28P, the abundance fitness is reported as -0.5 ± 0.21.
For F38M, the abundance fitness was -0.637 ± 0.48.
With F38K the abundance fitness was 0.132 ± 0.38.
In the case of P50W, the abundance fitness is reported as -0.845 ± 0.14.
With P50T the abundance fitness was -0.364 ± 0.093.
In the case of P50E, the abundance fitness is reported as -0.818 ± 0.13.
In the case of P50N, the abundance fitness is reported as -0.567 ± 0.1.
For V54S, the abundance fitness was -0.324 ± 0.14.
In the case of V54P, the abundance fitness is reported as -0.593 ± 0.23.
In the case of V54G, the abundance fitness is reported as 0.144 ± 0.14.
For E4F, the abundance fitness was -0.294 ± 0.098.
In the case of Q64F, the abundance fitness is reported as -0.584 ± 0.082.
In the case of Q64D, the abundance fitness is reported as -1.22 ± 0.4.
Variant S67T has an abundance fitness of -0.101 ± 0.071.
In the case of S67Y, the abundance fitness is reported as -0.179 ± 0.12.
Work on S67C yielded an abundance fitness of 0.003 ± 0.052.
For D22V, the abundance fitness was -0.037 ± 0.16.
With A56Y the abundance fitness was -0.421 ± 0.092.
Variant A56W has an abundance fitness of -0.628 ± 0.086.
Variant A56N has an abundance fitness of -0.654 ± 0.19.
G17N gave an abundance fitness of -0.714 ± 0.49.
For N49S, the abundance fitness was -0.498 ± 0.058.
N49T gave an abundance fitness of -0.874 ± 0.076.
N49H showed an abundance fitness of -0.355 ± 0.14.
Variant N49P has an abundance fitness of -0.097 ± 0.068.
In the case of R62Y, the abundance fitness is reported as -0.119 ± 0.45.
Variant R62A has an abundance fitness of -0.66 ± 0.4.
Work on Q18K yielded an abundance fitness of -0.234 ± 0.26.
Work on A60Q yielded an abundance fitness of 0.068 ± 0.049.
For A60F, the abundance fitness was -0.725 ± 0.17.
In the case of L48D, the abundance fitness is reported as -0.785 ± 0.2.
Work on L48Y yielded an abundance fitness of -0.649 ± 0.21.
For L48E, the abundance fitness was -0.678 ± 0.16.
L48N gave an abundance fitness of -0.664 ± 0.17.
Work on L11C yielded an abundance fitness of -0.848 ± 0.33.
For L11P, the abundance fitness was -0.578 ± 0.42.
R10L gave an abundance fitness of -0.193 ± 0.11.
R10V showed an abundance fitness of -0.024 ± 0.079.
Work on R10T yielded an abundance fitness of 0.135 ± 0.055.
Work on R10Y yielded an abundance fitness of 0.138 ± 0.29.
For P3F, the abundance fitness was 0.05 ± 0.078.
Work on P3K yielded an abundance fitness of 0.289 ± 0.09.
With E30A the abundance fitness was -0.619 ± 0.34.
Variant T52F has an abundance fitness of -0.412 ± 0.26.
Variant T52H has an abundance fitness of -0.104 ± 0.22.
Variant I15K has an abundance fitness of -0.982 ± 0.47.
